Results from IntAct's records for PubMed 15328537.

B1: Emerin (Homo sapiens), P50402 (parent)
chain: MDNYADLSDTELTTLLRRYNIPHGPVVGSTRRLYEKKIFEYETQRRRLSPPSSSAASSYSFSDLNSTRGDADMYDLPKKEDALLYQSKGYNDDYYEESYFTTRTYGEPESAGPSRAVRQSVTSFPDADAFHHQVHDDDLLSSSEEECKDRERPMYGRDSAYQSITHYRPVSASRSSLDLSYYPTSSSTSFMSSSSSSSSWLTRRAIRPENRAPGAGLGQDRQVPLWGQLLLFLVFVIVLFFIYHFMQAEEGNPF

Variants of: B1
Details: with acts_rabit ACTA1, P68135

effect of a mutation on the interaction | Variant
disrupting interaction | MDNYADLSDTELTTLLRRYNIPHGPVVGSTRRLYEKKIFEYETQRRRLSPPSSSAASSYSFSDLNSTRGDADMYDLPKKEDALLYQSKGYNDDYYEESYFTTRTYGEPESAGPSRAVRQSVTSFPDADAFHHHVHDDDLLSSSEEECKDRERPMYGRDSAYQSITHYRPVSASRSSLDLSYYPTSSSTSFMSSSSSSSSWLTRRAIRPENRAPGAGLGQDRQVPLWGQLLLFLVFVIVLFFIYHFMQAEEGNPF [Q133H]
